Measurements from paper PMC9270183 (The Journal of Experimental Medicine, 2022).

B1: V032 (antibody, V domains shown)
VH: QVQLVESGGGVVQPGRSLRLSCAASGFTFSSYGMHWVRQAPGKGLEWVAVISYDGSNKYYADSVKGRFTISRDNSKNTLYLQMNSLRAEDTAVYYCAKVSGPYCSSTSCYTGYWDYWGQGTLVTVSS
VL: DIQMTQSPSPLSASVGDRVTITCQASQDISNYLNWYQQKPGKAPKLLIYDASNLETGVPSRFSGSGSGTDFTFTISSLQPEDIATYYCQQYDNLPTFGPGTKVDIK
notes: IgG; donor BRA14; source: recombinant monoclonal IgG, produced and purified as previously described
B2: V033 (antibody, V domains shown)
VH: QVQLVQSGAEVKKPGASVKVSCKASGYTFTSYGISWVRQAPGQGLEWMGWISAYNGNTNYAQKLQGRVTMTTDTSTSTAYMELRSLRSDDTAVYYCARGRFCSSTSCYRAAPNYYYYYMDVWGKGTTVTVSS
VL: NFMLTQPHSVSESPGKTVTISCTRSSGSIASNYVQWYQQRPGSAPTTVIYEDNQRPSGVPDRFSGSIDSSSNSASLTISGLKTEDEADYYCQSYDSSNPYWVFGGGTKLTVL
notes: as for B1
B3: V037 (antibody, V domains shown)
VH: EVQLVESGGGLVQPGGSLRLSCAASEVIVSSNYMSWVRQAPGKGLEWVSVLYSGGSTFYADSVKGRFTISRDNSKNTLYLQMNSLRAEDTAVYYCARDLGPMGAFDIWGQGTMVTVSS
VL: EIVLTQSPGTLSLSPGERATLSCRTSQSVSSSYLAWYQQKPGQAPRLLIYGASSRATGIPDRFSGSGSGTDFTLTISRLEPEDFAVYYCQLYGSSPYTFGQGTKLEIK
notes: IgG; donor BRA15; source: recombinant monoclonal IgG, produced and purified as previously described
B4: V038 (antibody, V domains shown)
VH: QVQLVQSGAEVKKPGASVKVSCKASGYTFTGYYVHWVRQAPGQGLEWMGWINPNSGGTNFAQRFQGRVTMTRDTSISTAYMELSRLRSDDTAVYYCARGITVYGVAPDAFDIWGQGTMVTVSS
VL: DIQMTQSPSSLSASVGDRVTITCQASQDISNYLNWYQQKPGKAPKVLIYDASNLEPGVPSRFSGSGSGTDFTFTISSLQPEDIATYYCQQYDNLITFGQGTRLEIK
notes: as for B3
B5: V039 (antibody, V domains shown)
VH: QVQLQESGPGLVKPSQTLSLTCTVSGGSISSGSYYWSWIRQPAGKGLEWIGRIYTSGSTNYNPSLKSRVTISVDTSKNQFSLKLSSVTAADTAVYYCARADYSDYDNYYFDYWGQGTLVTVSS
VL: NFMLTQPHSVSESPGKTVAISCTRSSGSIASNYVHWYQQRPGSSPTTVIYDDNQRPSGVPDRFSGSIDSSSNSASLTISGLKTEDEADYYCQSYDSSNHNWVFGGGTKLTVL
notes: as for B3
B6: V042 (antibody, V domains shown)
VH: QLQLQESGPGLVKPSETLSLTCTVSGGSISSSTNYWGWIRQPPGKGLEWIGSIDYSGSTYYNPSLKSRVTMSVDTSKNQFSLKLSSVTATDTAMYYCARHVIDDSRGYYPAALDHWSQGTLVTVSS
VL: EIVLTQSPATLSLSPGERATLSCRASQSVNNYLAWYQQKPGQAPRLLIYDASNRATGVPARFSGSGSGTDFTLTISSLEPEDFAVYFCQQRSNWPPMYTFGQGTKLEIK
notes: as for B3
B7: V004 (antibody, V domains shown)
VH: QVQLQESGPGLVKPSQTLSLTCTVSGGSISSGSYYWSWIRQPAGKGLEWIGRIYTSGSTNYNPSLKSRVTISVDTSKNQFSLKLSSVTAADTAVYYCARDTTDDYYVIWGQGTLVTVSS
VL: DIQMTQSPSTLSASVGDRVTITCRASQSIRSWLAWYQQKPGKAPKLLIYDASSLESGVPSRFSGSGSGTEFTLTISSLQPDDFATYYCQQYNTHFRTFGQGTKVEIK
notes: IgG; donor BRA13; source: recombinant monoclonal IgG, produced and purified as previously described
B8: V043 (antibody, V domains shown)
VH: QLQLQESGPGLVKPSETLSLTCTVSGGSISSNNYYWGWIRQPPGKGLECIGTIYYSGNTYYNPSLKSRVTISVDTSKNQFSLKLGSVTAADTAVYYCARQQWLRDAFHIWGQGTMVTVSS
VL: NFMLTQPHSVSESPGKTVTISCTGSSGSIASNYVQWYQQRPGSAPTIVIYEDNQRPSGVPDRFSGSIDSSSNSASLTISGLKTEDEADYYCQSYDSNIHVVFGGGTKLTVL
notes: as for B3
B9: V044 (antibody, V domains shown)
VH: QVQLVQSGAEVKKPGASVKVSCKASGYTFTSYDINWVRQATGQGLEWMGWMNPNSGYAGYTQKFQGRITMTRNTSISTAYMELSSLRSEDTAVYFCARISSPTRLDPWGQGTLVTVSS
VL: NFMLTQPHSVSESPGKTVTISCSRSRGSIASSFVQWYQQRPGSSPTTVIYDDNQRPSGVPDRFSGSIDSSSNSASLTISGLKTEDEADYYCQSYDSISWVFGGGTKLTVL
notes: as for B3
B10: V045 (antibody, V domains shown)
VH: QVQLVQSGAEVKKPGASVKVSCKASTYTFTSYYIHWVRQAPGQGLEWMGIINPSGGSTSYAQNFQGRVTMTRDTSTSTVYMELSSLRSEDTAVYYCARGVLIPAAGGDFDYWGQGTLVTVSS
VL: QSALTQPRSVSGSPGQSVTISCTGTSSDVGGYKYVSWYQQHPGKAPKLMIYDVSKRPSGVPDRFSGSKSGNTASLTISGLQAEDEADYYCCSYAGSYSWVFGGGTKLTVL
notes: as for B3
B11: V046 (antibody, V domains shown)
VH: EVQLVESGGGLVQPGRSLRLSCAASGFTFEDYAMHWVRQAPGKGLEWVSGVSWNSGTIGYADSVKGRFIISRDNAKNSLYLQMNSLRAEDTALYYCANLGPTYYDFSRPTPMDVWGKGTTVTVSS
VL: QSALTQPASVSGSPGQSITISCTGTSSDVGGYNYVSWYQQHPGKAPKLIIYDVSNRPSGVSNRFSGSKSGNTASLTISGLQAEDEADYYCSSYTSSSTWVFGGGTKLTVL
notes: as for B3
B12: V048 (antibody, V domains shown)
VH: QVQLVQSGAEVKKPGASVKVSCKASGYTFTSYVISWVRQAPGQGLEWMGWISAYNGNTNYAQKLQGRVTMTTDTSTSTAYMELRSLRSDDTAVYYCARDVAGITMIVEEVIDAFDIWGQGTMVTVSS
VL: SYELTQPSSVSVSPGQTARITCSGDVLAKKYARWFQQKPGQAPVLVIYKDSERPSGIPERFSGSSSGTTVTLTISGAQVEDEADYYCFSAPDNNRVFGGGTKLTVL
notes: as for B3
B13: V049 (antibody, V domains shown)
VH: QVQLVESGGGVVQPGRSLRLSCAASRFPFSNYGMHWVRQAPGKGLEWVAVISFDGNNKYYGDSVKGRLTISRDNSKNTLYLQVKSLRPEDTAVYYCAKDISTGLSLALFRSPDGEGMDVWGQGTTVTVSS
VL: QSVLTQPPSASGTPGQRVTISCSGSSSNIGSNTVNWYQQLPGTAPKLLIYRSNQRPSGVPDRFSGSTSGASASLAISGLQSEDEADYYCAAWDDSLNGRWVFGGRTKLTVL
notes: as for B3
B14: V050 (antibody, V domains shown)
VH: EVQLVESGGGLVKPGGSLRLSCAASGFSFSNAWMSWVRQAPGKGLEWVGRIKSKTDGGTTDYAAPVKGRFTISRDDSQNTLYLQMNSLKTEDTAVYYCITDRFRVHIRGYYGQGTLVTVSS
VL: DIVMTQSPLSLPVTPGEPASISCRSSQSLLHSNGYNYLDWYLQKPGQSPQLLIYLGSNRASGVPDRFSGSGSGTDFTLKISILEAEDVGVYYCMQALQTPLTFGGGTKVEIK
notes: as for B3
B15: V051 (antibody, V domains shown)
VH: QVQLVESGGGVVQPGRSLRLSCEASGFTFSTYAMHWVRQAPGKGLEWVAVISYDGNNKYYADSVKGRLTVSRDNSKNTLYLQMNSLRAEDTAEYYCARDDGGYCSSLSCPMDVWGQGTTVTVSS
VL: SYELTQPPSVSVAPGKTARITCGGNSIGSKSVHWYQQRPGQAPVLVIYYDSDRPSGIPERFSGSNSGNTATLTISRVEAGDEADYYCQVWDSTLVFGGGTKLTVL
notes: as for B3
B16: V054 (antibody, V domains shown)
VH: QVQLVESGGGVVQPGRSLRLSCAASGFPFSSFGMHWVRQAPGKGLEWVAVISSDGSNKYYADSVKGRFTISRDNSKNTLYLQMNSLRAEDTAVYYCAKEFTYVVVTALWGTENFDIWGQGTMVTVSS
VL: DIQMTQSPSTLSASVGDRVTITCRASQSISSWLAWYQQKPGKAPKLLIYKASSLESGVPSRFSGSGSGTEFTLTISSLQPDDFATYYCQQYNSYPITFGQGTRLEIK
notes: as for B3
B17: V007 (antibody, V domains shown)
VH: QVQLVQSGAEVKKPGSSVKVSCKASGDTFSTYTISWVRQAPGQGLEWMGRIIPILGVGNYAQKFQGRVTITADKSTSTAYMELSSLRSEDTAVYYCAHTTPPGDAFDIWGQGTMVTVSS
VL: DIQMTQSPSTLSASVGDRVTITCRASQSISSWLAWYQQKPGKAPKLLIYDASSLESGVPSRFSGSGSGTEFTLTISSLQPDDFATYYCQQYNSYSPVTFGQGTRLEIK
notes: as for B7
B18: V055 (antibody, V domains shown)
VH: QVQLVQSGAEVKKPGSSVKVSCKASGGTFSSYIINWVRQAPGQGLEWMGRIIPILGIANYAQKFHGRVTITADESTSTAYMELSSLRSEDTAVYYCARGGPDPSDSNYAALLYYYYMDVWGKGTTVTVSS
VL: QSVLTQPPSVSAAPGQKVTISCSGSSSNIGSYYVSWYQKLPGTAPKLLIHENNKRPSGIPDRISGSKSGTSATLGITGLQTGDEADYYCGTWDSSLSDVVFGGGTKLTVL
notes: as for B3

Target: SARS-CoV-2 Wuhan-Hu-1 RBD (SARS-CoV-2 Wuhan-Hu-1, UniProt P0DTC2)
Test: BLI
Settings: both partners purified

Question: How did the Kd turn out when B1 was run?
Answer: 8.3 nM

Question: Which Kd does the source give for B2 here?
Answer: 4.68 nM

Question: With B3 as the binder, how does the Kd read?
Answer: 6.9 nM

Question: How did the Kd turn out when B4 was run?
Answer: 5.73 nM

Question: How did the Kd turn out when B5 was run?
Answer: 1.09 nM

Question: Which Kd does the source give for B6 here?
Answer: 32.5 nM

Question: Which Kd does the source give for B7 here?
Answer: 3.59 nM

Question: How did the Kd turn out when B8 was run?
Answer: 4.46 nM

Question: For B9, which Kd is on record?
Answer: 5.25 nM

Question: How did the Kd turn out when B10 was run?
Answer: 2.95 nM

Question: Which Kd does the source give for B11 here?
Answer: 0.698 nM

Question: With B12 as the binder, how does the Kd read?
Answer: 5.02 nM

Question: With B13 as the binder, how does the Kd read?
Answer: 12.8 nM

Question: For B14, which Kd is on record?
Answer: 56.9 nM

Question: With B15 as the binder, how does the Kd read?
Answer: 14.5 nM

Question: How did the Kd turn out when B16 was run?
Answer: 17.8 nM

Question: B17 was tested. Which Kd did it give?
Answer: 3.59 nM

Question: Which Kd does the source give for B18 here?
Answer: 0.981 nM
